Source: PMC10873366

Experiments:
[1] = molecular target: Sox2 N-terminal domain and DBD (N-DBD); assay: NMR; residue Ala 287; details: domain or fragment; Limits are not printed. They are inferred from the C-IDR label position 120, the +9/-9 charge count, and 180 observable HSQC peaks (198 residues minus 17 Pro and the N-terminal residue). The NMR sample was 15N-labelled or unlabelled. The His6-SUMO tag was removed. The smFRET version carries dyes at 120 and 265. Limits are not printed. They are inferred from 109 expected HSQC peaks (119 residues m); modification not given
Chain of Sox2 N-terminal domain and DBD (N-DBD) (chain, as listed by the source): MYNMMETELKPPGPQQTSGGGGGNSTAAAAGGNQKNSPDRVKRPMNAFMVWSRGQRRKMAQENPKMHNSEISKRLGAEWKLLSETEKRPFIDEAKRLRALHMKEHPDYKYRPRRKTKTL

[2] = molecular target: Sox2 N-terminal domain and DBD (N-DBD); assay: NMR; residue Ser 290; details: domain or fragment; Limits are not printed. They are inferred from the C-IDR label position 120, the +9/-9 charge count, and 180 observable HSQC peaks (198 residues minus 17 Pro and the N-terminal residue). The NMR sample was 15N-labelled or unlabelled. The His6-SUMO tag was removed. The smFRET version carries dyes at 120 and 265. Limits are not printed. They are inferred from 109 expected HSQC peaks (119 residues m); modification not given

B1: Sox2 C-terminal intrinsically disordered region (C-IDR) (protein)
chain: MKKDKYTLPGGLLAPGGNSMASGVGVGAGLGAGVNQRMDSYAHMNGWSNGSYSMMQDQLGYPQHPGLNAHGAAQMQPMHRYDVSALQYNSMTSSQTYMNGSPTYSMSYSQQGTPGMALGSMGSVVKSEASSSPPVVTSSSHSRAPCQAGDLRDMISMYLPGAEVPEPAAPSRLHMSQHYQSGPVPGTAINGTLPLSHM
Question: What does the source list for B1?
Answer: Kd [1]: 93 µM; Kd [2]: 74 µM
